The labels stand for the following.
B1: KLHDC10 (parent)
chain: FGGTGIPFGESNGNGVHVCNVKYK
B2: STK38L (parent)
chain: FLPGGDMMTLLMKKDTLTEEETQF
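Also: lentivirally expressed fusions sorted by FACS into six bins by GFP to DsRed ratio, PSI derived from sequencing read proportions per bin multiplied by bin number.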

The first series covers variants of B1. Briefly: protein stability index of a GFP-peptide fusion (GPS, HEK-293T) (PSI 1-6); higher = more stable. As to conditions: c terminus: a fixed tail appended.
Take FGATGIPFGESNGNGVHVCNVKYK [G3A]: the protein stability index came out at 2.52.

On to FGHTGIPFGESNGNGVHVCNVKYK [G3H], for which the protein stability index came out at 2.54.

As to FGETGIPFGESNGNGVHVCNVKYK [G3E], the protein stability index turned out to be 3.3.

For the variant FGLTGIPFGESNGNGVHVCNVKYK [G3L], the protein stability index was 2.63.

Consider FGITGIPFGESNGNGVHVCNVKYK [G3I], for which the protein stability index was 2.13.

For FGFTGIPFGESNGNGVHVCNVKYK [G3F], the protein stability index came to 2.66.

With FGCTGIPFGESNGNGVHVCNVKYK [G3C], the protein stability index was 3.1.

FGKTGIPFGESNGNGVHVCNVKYK [G3K]: the protein stability index was 2.32.

In the case of FGDTGIPFGESNGNGVHVCNVKYK [G3D], the protein stability index was found to be 2.38.

Take FCGTGIPFGESNGNGVHVCNVKYK [G2C]: the protein stability index came to 2.41.

FMGTGIPFGESNGNGVHVCNVKYK [G2M]: the protein stability index amounted to 2.7.

Consider FFGTGIPFGESNGNGVHVCNVKYK [G2F], for which the protein stability index was 2.72.

FWGTGIPFGESNGNGVHVCNVKYK [G2W]: the protein stability index amounted to 2.2.

Take FAGTGIPFGESNGNGVHVCNVKYK [G2A]: the protein stability index stood at 2.2.

As to FEGTGIPFGESNGNGVHVCNVKYK [G2E], the protein stability index amounted to 3.9.

Consider FTGTGIPFGESNGNGVHVCNVKYK [G2T], for which the protein stability index worked out at 1.97.

For FKGTGIPFGESNGNGVHVCNVKYK [G2K], the protein stability index turned out to be 3.55.

For FHGTGIPFGESNGNGVHVCNVKYK [G2H], the protein stability index was 2.58.

Regarding FDGTGIPFGESNGNGVHVCNVKYK [G2D], the protein stability index is 3.46.

With FQGTGIPFGESNGNGVHVCNVKYK [G2Q], the protein stability index is 2.02.

Consider FRGTGIPFGESNGNGVHVCNVKYK [G2R], for which the protein stability index amounted to 3.08.

Take FNGTGIPFGESNGNGVHVCNVKYK [G2N]: the protein stability index amounted to 2.16.

In the case of FSGTGIPFGESNGNGVHVCNVKYK [G2S], the protein stability index is 2.11.

Take FVGTGIPFGESNGNGVHVCNVKYK [G2V]: the protein stability index was 1.92.

Turning to FYGTGIPFGESNGNGVHVCNVKYK [G2Y], the protein stability index is 2.55.

Turning to FIGTGIPFGESNGNGVHVCNVKYK [G2I], the protein stability index was 2.14.

As for FLGTGIPFGESNGNGVHVCNVKYK [G2L], the protein stability index was determined as 2.19.

In the case of FPGTGIPFGESNGNGVHVCNVKYK [G2P], the protein stability index was 1.83.

Turning to CGGTGIPFGESNGNGVHVCNVKYK [F1C], the protein stability index stood at 3.03.

On to NGGTGIPFGESNGNGVHVCNVKYK [F1N], for which the protein stability index turned out to be 4.34.

QGGTGIPFGESNGNGVHVCNVKYK [F1Q]: the protein stability index was 4.24.

As for MGGTGIPFGESNGNGVHVCNVKYK [F1M], the protein stability index worked out at 4.04.

For the variant LGGTGIPFGESNGNGVHVCNVKYK [F1L], the protein stability index was 4.04.

In the case of AGGTGIPFGESNGNGVHVCNVKYK [F1A], the protein stability index is 4.18.

In the case of RGGTGIPFGESNGNGVHVCNVKYK [F1R], the protein stability index stood at 3.54.

Consider HGGTGIPFGESNGNGVHVCNVKYK [F1H], for which the protein stability index is 3.93.

Take DGGTGIPFGESNGNGVHVCNVKYK [F1D]: the protein stability index came out at 4.58.

In the case of GGGTGIPFGESNGNGVHVCNVKYK [F1G], the protein stability index came out at 4.3.

Turning to KGGTGIPFGESNGNGVHVCNVKYK [F1K], the protein stability index was 3.71.

Consider EGGTGIPFGESNGNGVHVCNVKYK [F1E], for which the protein stability index was 3.67.

Consider PGGTGIPFGESNGNGVHVCNVKYK [F1P], for which the protein stability index is 3.9.

For IGGTGIPFGESNGNGVHVCNVKYK [F1I], the protein stability index was determined as 3.5.

Consider TGGTGIPFGESNGNGVHVCNVKYK [F1T], for which the protein stability index is 3.98.

As to WGGTGIPFGESNGNGVHVCNVKYK [F1W], the protein stability index turned out to be 2.73.

VGGTGIPFGESNGNGVHVCNVKYK [F1V]: the protein stability index is 3.79.

Consider SGGTGIPFGESNGNGVHVCNVKYK [F1S], for which the protein stability index was 4.25.

For YGGTGIPFGESNGNGVHVCNVKYK [F1Y], the protein stability index turned out to be 2.23.

A further series covers variants of B2. The description is as above. The following applies: c terminus: a fixed tail appended.
In the case of FLPGGDMMTLLMKKDTLTEEETAF [Q23A], the protein stability index stood at 2.05.

As for FLPGGDMMTLLMKKDTLTEEETCF [Q23C], the protein stability index is 2.24.

FLPGGDMMTLLMKKDTLTEEETMF [Q23M]: the protein stability index stood at 2.4.

Regarding FLPGGDMMTLLMKKDTLTEEETDF [Q23D], the protein stability index was 3.06.

Take FLPGGDMMTLLMKKDTLTEEETRF [Q23R]: the protein stability index was 3.09.

On to FLPGGDMMTLLMKKDTLTEEETTF [Q23T], for which the protein stability index amounted to 2.09.

Consider FLPGGDMMTLLMKKDTLTEEETIF [Q23I], for which the protein stability index worked out at 2.12.

Turning to FLPGGDMMTLLMKKDTLTEEETYF [Q23Y], the protein stability index amounted to 1.88.

Regarding FLPGGDMMTLLMKKDTLTEEETKF [Q23K], the protein stability index was 2.45.

On to FLPGGDMMTLLMKKDTLTEEETPF [Q23P], for which the protein stability index amounted to 2.21.

As for FLPGGDMMTLLMKKDTLTEEETLF [Q23L], the protein stability index is 1.74.

Take FLPGGDMMTLLMKKDTLTEEETWF [Q23W]: the protein stability index stood at 1.43.

Turning to FLPGGDMMTLLMKKDTLTEEETGF [Q23G], the protein stability index came to 2.61.

For the variant FLPGGDMMTLLMKKDTLTEEETEF [Q23E], the protein stability index was 2.25.

On to FLPGGDMMTLLMKKDTLTEEETFF [Q23F], for which the protein stability index turned out to be 1.24.

Take FLPGGDMMTLLMKKDTLTEEETSF [Q23S]: the protein stability index came to 2.91.

As for FLPGGDMMTLLMKKDTLTEEETHF [Q23H], the protein stability index was 2.27.

Regarding FLPGGDMMTLLMKKDTLTEEETVF [Q23V], the protein stability index amounted to 2.25.

FLPGGDMMTLLMKKDTLTEEETNF [Q23N]: the protein stability index worked out at 2.37.

Take FLPGGDMMTLLMKKDTLTEEETQP [F24P]: the protein stability index amounted to 2.64.

Turning to FLPGGDMMTLLMKKDTLTEEETQR [F24R], the protein stability index is 2.09.

With FLPGGDMMTLLMKKDTLTEEETQH [F24H], the protein stability index came to 2.44.

For FLPGGDMMTLLMKKDTLTEEETQD [F24D], the protein stability index stood at 2.97.

Consider FLPGGDMMTLLMKKDTLTEEETQL [F24L], for which the protein stability index amounted to 3.02.

FLPGGDMMTLLMKKDTLTEEETQY [F24Y]: the protein stability index came to 2.52.

FLPGGDMMTLLMKKDTLTEEETQT [F24T]: the protein stability index stood at 2.42.

For FLPGGDMMTLLMKKDTLTEEETQM [F24M], the protein stability index is 2.4.

With FLPGGDMMTLLMKKDTLTEEETQC [F24C], the protein stability index is 1.77.

Regarding FLPGGDMMTLLMKKDTLTEEETQA [F24A], the protein stability index came out at 2.28.

In the case of FLPGGDMMTLLMKKDTLTEEETQW [F24W], the protein stability index came to 2.09.

With FLPGGDMMTLLMKKDTLTEEETQN [F24N], the protein stability index is 2.65.

For FLPGGDMMTLLMKKDTLTEEETQV [F24V], the protein stability index came to 2.65.

Regarding FLPGGDMMTLLMKKDTLTEEETQS [F24S], the protein stability index was determined as 2.19.

For FLPGGDMMTLLMKKDTLTEEETQI [F24I], the protein stability index amounted to 2.77.

Take FLPGGDMMTLLMKKDTLTEEETQQ [F24Q]: the protein stability index was 2.58.

Take FLPGGDMMTLLMKKDTLTEEETQK [F24K]: the protein stability index stood at 2.53.

For the variant FLPGGDMMTLLMKKDTLTEEETQG [F24G], the protein stability index was 2.84.

For the variant FLPGGDMMTLLMKKDTLTEEETQE [F24E], the protein stability index came to 2.35.

As for FLPGGDMMTLLMKKDTLTEEESQF [T22S], the protein stability index was 2.37.

Regarding FLPGGDMMTLLMKKDTLTEEEWQF [T22W], the protein stability index was 2.4.

Consider FLPGGDMMTLLMKKDTLTEEEMQF [T22M], for which the protein stability index stood at 1.97.

For the variant FLPGGDMMTLLMKKDTLTEEEQQF [T22Q], the protein stability index was determined as 2.21.

In the case of FLPGGDMMTLLMKKDTLTEEENQF [T22N], the protein stability index is 2.31.

In the case of FLPGGDMMTLLMKKDTLTEEEYQF [T22Y], the protein stability index came out at 2.75.

With FLPGGDMMTLLMKKDTLTEEERQF [T22R], the protein stability index stood at 2.37.

FLPGGDMMTLLMKKDTLTEEEPQF [T22P]: the protein stability index was determined as 1.69.

For the variant FLPGGDMMTLLMKKDTLTEEEVQF [T22V], the protein stability index turned out to be 2.23.

The record behind these values is the supplement of paper PMC10567573.
